Among the data in PMC11410778 are Km of cleavage of the FRET substrate by whole E. coli BL21 expressing the protease (0–240 μM substrate, Michaelis–Menten fit) values, retold here.

Assay [1] deals with pOmpT S267D (Escherichia coli (avian pathogenic strain E058)).
Assay [2] addresses cOmpT D267S/S276T (Escherichia coli (avian pathogenic strain E058)) (UniProt P09169).
In assay [3] the target is pOmpT T276S (Escherichia coli (avian pathogenic strain E058)).
The target in assay [4] is cOmpT S276T (Escherichia coli (avian pathogenic strain E058)) (UniProt P09169).
Assay [5] concerns the target cOmpT D267S (Escherichia coli (avian pathogenic strain E058)) (UniProt P09169).
Assay [6] deals with pOmpT S267D/T276S (Escherichia coli (avian pathogenic strain E058)).
Assay [7] addresses plasmid-encoded OmpT (pOmpT or ArlC) of avian pathogenic Escherichia coli E058 (Escherichia coli (avian pathogenic strain E058)).
Assay [8] concerns the target chromosome-encoded OmpT (cOmpT) of avian pathogenic Escherichia coli E058 (Escherichia coli (avian pathogenic strain E058)) (UniProt P09169).

As for “synthetic FRET substrate 2Abz-SLGRKIQI-K(Dnp)-NH2 (peptide)”, the Km of cleavage of the FRET substrate by whole E. coli BL21 expressing the protease (0–240 μM substrate, Michaelis–Menten fit) in assay [1] is 0.0281 µM; in assay [2], 0.0408 µM; in assay [3], 0.0157 µM; in assay [4] it was 0.0475 µM; in assay [5], 0.0167 µM; in assay [6], 0.0215 µM. Moreover, the Km of cleavage of the FRET substrate by whole E. coli BL21 expressing the protease (0–240 μM substrate, Michaelis–Menten fit) in assay [7] worked out at 0.0667 µM; in assay [8], 0.0107 µM.
